Measurements published in US20110135573A1, “METALLOPROTEINASE 9 AND METALLOPROTEINASE 2 BINDING PROTEINS” (DYAX CORP., priority 2009, published 2011).

Columns and labels:
MMP-9 [1] = molecular target: T1, MMP-9 (Homo sapiens, UniProt P14780); test: Binding of non-inhibiting Fabs to MMP-9 (apparent KD, dissociation t1/2, TIMP-1 competition); conditions: Fab
Target sequence in this assay (P14780 94-707): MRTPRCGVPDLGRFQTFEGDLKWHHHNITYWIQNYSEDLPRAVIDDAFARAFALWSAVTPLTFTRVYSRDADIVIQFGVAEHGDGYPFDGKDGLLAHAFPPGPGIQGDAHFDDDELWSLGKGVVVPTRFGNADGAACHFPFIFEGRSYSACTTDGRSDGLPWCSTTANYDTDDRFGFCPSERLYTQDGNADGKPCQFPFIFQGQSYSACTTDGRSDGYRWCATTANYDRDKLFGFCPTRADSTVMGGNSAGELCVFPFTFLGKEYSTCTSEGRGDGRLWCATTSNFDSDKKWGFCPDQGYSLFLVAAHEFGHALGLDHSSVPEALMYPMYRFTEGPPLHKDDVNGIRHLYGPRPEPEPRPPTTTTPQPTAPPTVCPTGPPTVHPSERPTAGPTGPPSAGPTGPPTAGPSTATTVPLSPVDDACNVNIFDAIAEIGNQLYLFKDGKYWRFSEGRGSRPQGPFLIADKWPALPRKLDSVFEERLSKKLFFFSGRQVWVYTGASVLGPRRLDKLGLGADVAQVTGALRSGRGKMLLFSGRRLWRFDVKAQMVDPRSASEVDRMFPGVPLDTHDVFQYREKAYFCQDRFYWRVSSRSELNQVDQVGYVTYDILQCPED

MMP-9 [2] = molecular target: T1, MMP-9; test: Initial screen of sFabs/IgG1s for inhibition of MMP-9 at 1 μM; format: biochemical
Method: After sequencing analysis, the phage display were converted into sFabs and then into IgG1s. Their ability to inhibit MMP-9 and other MMPs (1, 3, 7, 8, 9, 10, 12, 13, 14) was determined by usual means. Compounds were initially screened at 1 μM against MMP-9 and those compounds that inhibited MMP-9 >80% were subjected to additional screens against purified recombinant human MMP-2 (APMA activated enzyme) and other MMPs. For these additional screens, an IC50 value was determined. Ki values and specificities of the inhibitors were determined as described below.
Target sequence in this assay (P14780 94-707): as above

Mouse MMP-9 = molecular target: T2, Mouse MMP-9 (Mus musculus, UniProt P41245); test: Enzyme inhibition assay (single point inhibition, IC50/Ki,app), substrate M-2350; format: biochemical; conditions: light chain shuffled antibodies
T2 construct: purchased R&D Systems 909-MM (909-MM-010)
T2 sequence (P41245 108-730): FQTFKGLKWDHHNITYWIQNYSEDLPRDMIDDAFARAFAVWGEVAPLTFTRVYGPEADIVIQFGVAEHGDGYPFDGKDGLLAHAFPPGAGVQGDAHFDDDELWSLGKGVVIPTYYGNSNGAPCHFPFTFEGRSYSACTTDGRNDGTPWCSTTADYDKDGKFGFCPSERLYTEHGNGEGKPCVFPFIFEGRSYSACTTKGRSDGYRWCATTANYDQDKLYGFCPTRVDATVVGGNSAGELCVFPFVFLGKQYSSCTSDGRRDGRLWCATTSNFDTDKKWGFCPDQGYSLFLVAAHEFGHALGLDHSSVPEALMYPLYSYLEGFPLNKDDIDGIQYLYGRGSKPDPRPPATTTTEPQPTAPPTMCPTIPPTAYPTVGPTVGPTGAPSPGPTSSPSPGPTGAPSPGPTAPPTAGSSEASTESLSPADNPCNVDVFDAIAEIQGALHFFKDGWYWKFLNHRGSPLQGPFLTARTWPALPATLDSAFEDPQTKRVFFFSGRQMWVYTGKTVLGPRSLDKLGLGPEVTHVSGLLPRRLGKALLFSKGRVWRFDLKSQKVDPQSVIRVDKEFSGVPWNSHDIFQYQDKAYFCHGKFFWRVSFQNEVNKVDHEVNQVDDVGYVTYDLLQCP
Method: (§1) 343 unique sFabs from the anti-MMP-9/-2 M237-D02 affinity maturation campaign were discovered by phage display, produced in small scale (6 mL cultures in deep 24-well plates) and screened to select inhibitors with sub-nanomolar potency against the human enzymes and at least single-digit nanomolar potency toward the mouse orthologues. […] Isolates which appeared potent against both human and mouse MMP-2 were then subjected to IC50 analysis against hMMP-9. Sub-nanomolar inhibitors of hMMP-9 were further tested by IC50 analysis against mMMP-9 and h/m MMP-2, if sufficient small-scale sFab material was available. Thirteen potential h/m MMP-9/-2 sFab inhibitors were then produced in medium scale (250 mL cultures in flasks) and retested for h/m MMP-9 and h/m MMP-2 inhibition. Five potential lead candidates were reformatted as IgGs and retested in enzyme inhibition assays.
(§2) Human MMP-9 (Biomol #SE-244), mouse MMP-9 (R&D Systems #909-MM-010), human MMP-2 (Biomol #SE-237) and mouse MMP-2 (R&D Systems #924-MP-010) were tested at final concentrations of 1 nM, 0.25-0.4 nM, 2.5 nM and 0.2 nM, respectively. Target enzymes were incubated with inhibitor for two hours at 30° C. in reaction buffer (50 mM Tris-HCl pH 7.5, 150 mM NaCl, 5 mM CaCl2, 0.05% Brij-35) in a total volume of 90 μL using a white 96 well plate (Costar). Reactions contained 5 μL of small-scale sFab stock solution (average concentration of 500 nM) for single point inhibition analysis or a concentration series of sFab/IgG for IC50 Ki,app determinations. Commercially available anti-MMP-9 antibodies (Millipore mAb 13415 and R&D Systems polyclonal IgG #AB911) were tested by IC50 analyses using 100 nM and 500 nM as the highest inhibitor concentrations, respectively. An anti-MMP-2 antibody (R&D Systems polyclonal IgG #AF902) was similarly tested with 200 nM as the highest inhibitor concentration. Reactions were initiated by the addition of 10 μL of a 10× concentrated stock of substrate, Mca-Lys-Pro-Leu-Gly-Leu-Dap(Dnp)-Ala-Arg-NH2, (Bachem M-2350), at final concentration of 10 μM and monitored at 30° C. in a Molecular Devices' Gemini fluorescence plate reader. The excitation and emission wavelengths were set at 328 nm and 393 nm, respectively. Kinetic data were acquired by the increase in fluorescence, and initial rates for each condition were plotted against the total inhibitor concentration. Reactions were performed in duplicates and all data replicates were plotted in a single graph and fit to the following equation^1:
(§3) Where A=initial rate observed at each inhibitor concentration; Ao=initial rate observed in the absence of inhibitor; Ainh=initial rate observed for the enzyme inhibitor complex; Inh=concentration of inhibitor; E=total enzyme concentration (treated as a floated parameter); and Ki,app=apparent equilibrium inhibition constant.

human MMP-2 = molecular target: T3, human MMP-2 (Homo sapiens, UniProt P08253); test: as above; format: biochemical; conditions: light chain shuffled antibodies
T3 construct: purchased Biomol SE-237
T3 sequence (P08253 110-446 limits assumed): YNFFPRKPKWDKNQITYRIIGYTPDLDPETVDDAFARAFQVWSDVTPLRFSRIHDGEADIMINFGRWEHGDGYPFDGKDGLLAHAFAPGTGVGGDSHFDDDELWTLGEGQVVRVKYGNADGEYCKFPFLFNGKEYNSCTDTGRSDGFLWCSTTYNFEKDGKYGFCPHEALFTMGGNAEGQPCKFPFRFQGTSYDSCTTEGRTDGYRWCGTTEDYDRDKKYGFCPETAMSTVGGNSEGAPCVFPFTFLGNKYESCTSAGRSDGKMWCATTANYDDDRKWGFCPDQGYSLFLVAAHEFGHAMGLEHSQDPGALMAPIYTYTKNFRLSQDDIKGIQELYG
Method: as §1, §2, §3

mouse MMP-2 = molecular target: T4, mouse MMP-2 (Mus musculus, UniProt P33434); test: as above; format: biochemical; conditions: for inhibition of mouse MMP-2 (in words): light chain shuffled antibodies
T4 construct: purchased R&D Systems 924-MP-010
T4 sequence (P33434 110-662): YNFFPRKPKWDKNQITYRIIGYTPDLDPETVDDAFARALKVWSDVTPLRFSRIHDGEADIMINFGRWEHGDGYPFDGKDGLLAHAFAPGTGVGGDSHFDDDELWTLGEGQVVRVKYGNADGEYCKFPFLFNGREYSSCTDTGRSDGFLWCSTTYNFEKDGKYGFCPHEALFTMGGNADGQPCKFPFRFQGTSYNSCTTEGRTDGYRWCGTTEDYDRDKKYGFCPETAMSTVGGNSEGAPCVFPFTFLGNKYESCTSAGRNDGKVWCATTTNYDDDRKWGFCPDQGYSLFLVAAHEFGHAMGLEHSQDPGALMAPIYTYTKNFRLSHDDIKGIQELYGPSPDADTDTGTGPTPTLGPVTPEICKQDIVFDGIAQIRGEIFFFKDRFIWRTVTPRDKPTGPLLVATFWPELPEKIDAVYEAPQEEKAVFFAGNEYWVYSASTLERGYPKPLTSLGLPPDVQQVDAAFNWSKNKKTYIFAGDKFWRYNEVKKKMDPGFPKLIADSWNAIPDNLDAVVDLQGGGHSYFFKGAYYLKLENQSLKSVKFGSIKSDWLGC
Method: as §1, §2, §3

MMP-9 [3] = molecular target: T1, MMP-9; test: as above; format: biochemical; design: Human MMP-9 catalytic domain (BIOMOL, SE-244); purchased BIOMOL SE-244; conditions: light chain shuffled antibodies
Method: as §1
as §2, with “Commercially available anti-MMP-9 antibodies (Millipore mAb 13415 and R&D Systems polyclonal IgG #AB911) were tested by IC50 analyses using 100 nM and 500 nM as the highest inhibitor concentrations, respectively. An anti-MMP-2 antibody (R&D Systems polyclonal IgG #AF902) was similarly tested with 200 nM as the highest inhibitor concentration.” left out, “The excitation and emission wavelengths were set at 328 nm and 393 nm, respectively.” left out, “Reactions were performed in duplicates and all data replicates were plotted in a single graph and fit to the following equation^1:” left out
Target sequence in this assay (P14780 107-444 limits assumed): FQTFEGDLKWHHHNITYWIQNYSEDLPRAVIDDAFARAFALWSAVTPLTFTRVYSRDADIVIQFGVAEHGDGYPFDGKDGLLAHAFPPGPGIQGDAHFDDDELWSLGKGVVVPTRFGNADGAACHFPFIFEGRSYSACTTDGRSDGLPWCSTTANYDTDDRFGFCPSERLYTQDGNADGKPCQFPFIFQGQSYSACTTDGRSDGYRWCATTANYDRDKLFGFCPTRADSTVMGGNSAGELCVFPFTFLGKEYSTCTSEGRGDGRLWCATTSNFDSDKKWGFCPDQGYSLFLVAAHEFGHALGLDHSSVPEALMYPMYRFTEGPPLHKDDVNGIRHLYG

B1: M0076-D03: Fab that binds MMP-9 but does not inhibit (antibody, V domains shown)
VH: EVQLLESGGGLVQPGGSLRLSCAASGFTFSLYRMNWVRQAPGKGLEWVSYIGSSGGATAYADSVKGRFTISRDNSKNTLYLQMNSLRAEDTAVYYCARGAWYLDSWGQGTLVTVSS
VL: QDIQMTQSPSSLSASVGDRVTITCRASQGIRNDLDWYQQKPGTAPKRLIYSASNLQSGVPSRFSGSGSGTEFTLTISNLQPEDLATYFCLQHNSFPLTFGQGTKVEIK
MMP-9 [1]
  competition with TIMP-1: does not compete with TIMP-1
  dissociation t1/2: 33 min
MMP-9 [2]
  inhibition of the catalytic activity of MMP-9: Neither antibody inhibits

B2: M0078-G07: Fab that binds MMP-9 but does not inhibit (antibody, V domains shown)
VH: EVQLLESGGGLVQPGGSLRLSCAASGFTFSSYTMEWVRQAPGKGLEWVSWISPSGGYTFYADSVKGRFTISRDNSKNTLYLQMNSLRAEDTALYYCARGYSYGSIDLWGRGTLVTVSS
VL: QDIQMTQSPGTLSVSPGERATLSCRASQSVSSDLAWYQHKPGQAPRLLIYGVSTKATGVPARFSGSGSGTEFTLTISSLQSEDLAVYYCQQYHNWPPLTFGGGTKVEIK
MMP-9 [1]
  competition with TIMP-1: does not compete with TIMP-1
  dissociation t1/2: 25 min
MMP-9 [2]
  inhibition of the catalytic activity of MMP-9: Neither antibody inhibits

B3: M0279-A03: MMP-9 specific antibody from light chain shuffling of M237-D02, sFab (antibody, V domains shown)
VH: EVQLLESGGGLVQPGGSLRLSCAASGFTFSQYPMWWVRQAPGKGLEWVSYIVPSGGRTYYADSVKGRFTISRDNSKNTLYLQMNSLRAEDTAVYYCAKDRAYGDYVGWNGFDYWGQGTLVTVSS
VL: QDIQMTQSPATLSVSPGERVTLSCKASHSISRNLAWYQQKPGQAPRLLIFGASTRATGIPARFSGSGSGTEFTLTISSLEAEDFAVYYCQQRRNWPVTFGPGTKLDFK
Mouse MMP-9
  inhibition of mouse MMP-9 (in words): bind and inhibit
Human MMP-2
  inhibition of human MMP-2 (in words): do not inhibit
Mouse MMP-2
  inhibition of mouse MMP-2 (in words): do not inhibit
MMP-9 [3]
  inhibition of human MMP-9 (in words): bind and inhibit

B4: M0288-C08: MMP-9 specific antibody from light chain shuffling of M237-D02, sFab (antibody, V domains shown)
VH: EVQLLESGGGLVQPGGSLRLSCAASGFTFSQYPMWWVRQAPGKGLEWVSYIVPSGGRTYYADSVKGRFTISRDNSKNTLYLQMNSLRAEDTAVYYCAKDRAYGDYVGWNGFDYWGQGTLVTVSS
VL: QDIQMTQSPGTLSVSPGERVTLSCRASQSVSSYLAWYQQKPGQAPRLLIYGASTRVTGIPARFSGSGSGTEFTLTISSLQSEDFAVYYCQQRSSWPITFGQGTRLEIK
Mouse MMP-9
  inhibition of mouse MMP-9 (in words): bind and inhibit
Human MMP-2
  inhibition of human MMP-2 (in words): do not inhibit
Mouse MMP-2
  inhibition of mouse MMP-2 (in words): do not inhibit
MMP-9 [3]
  inhibition of human MMP-9 (in words): bind and inhibit

B5: M0276-F11: affinity matured variant of M237-D02, sFab (antibody, V domains shown)
VH: EVQLLESGGGLVQPGGSLRLSCAASGFTFSWYDMWWVRQAPGKGLEWVSVIYSSGGPTFYADSVKGRFTISRDNSKNTLYLQMNSLRAEDTAVYYCAKDRAYGDYVGWNGFDYWGQGTLVTVSS
VL: QDIQMTQSPATLSLSPGERATLSCRASQSISSFLAWYQQKPGQAPRLLIYDASYRATGIPARFSGSGSGTDFTLTISSLEPEDYAVYYCQQRGNWPITFGQGTRLEIK
Mouse MMP-2; medium-scale sFab, Table 10
  Ki: 3.7 nM
Mouse MMP-2; small-scale sFab, Table 10
  Ki: 3.7 nM

B6: X0106-B02: germlined, optimized version of M0276-F11, IgG1 (antibody, V domains shown)
VH: EVQLLESGGGLVQPGGSLRLSCAASGFTFSWYDMWWVRQAPGKGLEWVSVIYSSGGPTFYADSVKGRFTISRDNSKNTLYLQMNSLRAEDTAVYYCAKDRAYGDYVGWNGFDYWGQGTLVTVSS
VL: EIVLTQSPATLSLSPGERATLSCRASQSISSFLAWYQQKPGQAPRLLIYDASYRATGIPARFSGSGSGTDFTLTISSLEPEDFAVYYCQQRGNWPITFGQGTRLEIK
Mouse MMP-2; IgG, Table 12
  Ki: 4.2 nM

B7: X0106-C03: germlined, optimized version of M0274-G08, IgG1 (antibody, V domains shown)
VH: EVQLLESGGGLVQPGGSLRLSCAASGFTFSVYDMWWVRQAPGKGLEWVSVIYPSGGATYYADSVKGRFTISRDNSKNTLYLQMNSLRAEDTAVYYCAKDRAYGDYVGWNGFDYWGQGTLVTVSS
VL: EIVLTQSPATLSLSPGERATLSCRASQSISSFLAWYQQKPGQAPRLLIYDASYRATGIPARFSGSGSGTDFTLTISSLEPEDFAVYYCQQRGNWPITFGQGTRLEIK
Mouse MMP-2; IgG, Table 12
  Ki: 3.2 nM

B8: X0106-E04: germlined, optimized version of M0275-D03, IgG1 (antibody, V domains shown)
VH: EVQLLESGGGLVQPGGSLRLSCAASGFTFSQYDMWWVRQAPGKGLEWVSVIYPSGTTFYADSVKGRFTISRDNSKNTLYLQMNSLRAEDTAVYYCAKDRAYGDYVGWNGFDYWGQGTLVTVSS
VL: EIVLTQSPATLSLSPGERATLSCRASQSISSFLAWYQQKPGQAPRLLIYDASYRATGIPARFSGSGSGTDFTLTISSLEPEDFAVYYCQQRGNWPITFGQGTRLEIK
Mouse MMP-2; IgG, Table 12
  Ki: 3.9 nM

B9: X0106-F05: germlined, optimized version of M0307-F04, IgG1 (antibody, V domains shown)
VH: EVQLLESGGGLVQPGGSLRLSCAASGFTFSLYDMWWVRQAPGKGLEWVSVIYSSGGYTGYADSVKGRFTISRDNSKNTLYLQMNSLRAEDTAVYYCAKDRAYGDYVGWNGFDYWGQGTLVTVSS
VL: EIVLTQSPATLSLSPGERATLSCRASQSISSFLAWYQQKPGQAPRLLIYDASYRATGIPARFSGSGSGTDFTLTISSLEPEDFAVYYCQQRGNWPITFGQGTRLEIK
Mouse MMP-2; IgG, Table 12
  Ki: 3 nM

B10: X0106-A01: germlined, optimized version of M0256-D11, IgG1 (antibody, V domains shown)
VH: EVQLLESGGGLVQPGGSLRLSCAASGFTFSHYDMWWVRQAPGKGLEWVSVIYSSGGPTFYADSVKGRFTISRDNSKNTLYLQMNSLRAEDTAVYYCAKDRAYGDYVGWNGFDYWGQGTLVTVSS
VL: EIVLTQSPATLSLSPGERATLSCRASQSISSFLAWYQQKPGQAPRLLIYDASYRATGIPARFSGSGSGTDFTLTISSLEPEDFAVYYCQQRGNWPITFGQGTRLEIK
Mouse MMP-2; IgG, Table 12
  Ki: 4.7 nM
